Tests used:
[1] = molecular target: T1, Bcl-2(1-206) (human, UniProt P10415 1-206); assay: NMR titration; 1H-15N TROSY-HSQC spectra of 10-45 uM uniformly 15N-labelled Bcl-2 fragment without and with Beclin 1 BH3 peptide added from a d6-DMSO stock; 25 °C, 20 mM sodium phosphate pH 7.3, 1 mM TCEP, 7% D2O; settings: both partners purified
T1 construct: vector analogous to that of human Bcl-2(1-218), isoform alpha; Uniformly 15N-labelled for NMR; Vector was a gift from Beth Levine, called analogous to the pSKB2 vector of Bcl-2(1-218); also called Bcl-2 fragment lacking the juxtamembrane region; Bcl-2(1-2-6); source: E. coli BL21 (DE3), purified (Ni-NTA, His6-tag cleaved with 3C protease, Superdex 75); not shown: His6, N-terminal, cleaved

[2] = molecular target: T2, Bcl-2(1-218) (human, UniProt P10415 1-218); assay: as above; settings: both partners purified
T2 construct: Uniformly 15N-labelled for NMR. pSKB2 vector with HRV 3C cleavage site; also called cytoplasmic region of Bcl-2 (residues 1-218); Becl-2(1-218); source: E. coli BL21 (DE3), purified (Ni-NTA, His6-tag cleaved with 3C protease, Superdex 75); not shown: His6, N-terminal, cleaved
T2 sequence (P10415 1-218): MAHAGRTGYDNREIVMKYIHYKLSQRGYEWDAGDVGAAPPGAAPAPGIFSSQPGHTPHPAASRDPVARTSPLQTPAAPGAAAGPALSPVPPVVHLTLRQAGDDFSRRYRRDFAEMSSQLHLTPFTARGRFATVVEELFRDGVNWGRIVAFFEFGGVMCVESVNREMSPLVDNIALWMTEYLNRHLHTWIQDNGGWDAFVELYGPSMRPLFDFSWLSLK

T1 sequence (P10415 1-206): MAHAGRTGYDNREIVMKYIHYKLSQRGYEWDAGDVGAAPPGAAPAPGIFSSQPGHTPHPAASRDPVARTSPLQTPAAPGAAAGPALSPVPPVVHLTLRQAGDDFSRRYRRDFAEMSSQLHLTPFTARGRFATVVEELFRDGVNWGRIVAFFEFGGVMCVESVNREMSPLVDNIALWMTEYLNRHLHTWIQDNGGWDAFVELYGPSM

binding result [1]: binds
binding result [2]: binds
B1: Beclin 1 BH3 peptide (peptide)
peptide: DGGTMENLSRRLKVTGDLFDIMSGQT
notes: Beclin 1, human, residues 105-130 (BH3 domain); L-amino acid peptide, dissolved in d6-dimethylsulfoxide; also called Beclin 1 BH3 domain; source: synthetic peptide (Protein Chemistry Technology Core, UT Southwestern), HPLC purified
